Legend:
[1] = target: T1, recombinant anti-PR3 antibody CLB12.8; assay: SPR (Biacore 8K), single cycle kinetics, CLB12.8 immobilized, steady state fit
T1 construct: Mouse monoclonal anti-PR3 antibody (detected with anti-mouse IgG); recombinant form used in SPR; also called anti-PR3 antibody clone CLB12.8; anti-PR3 mouse antibody
Text: (§1) Methods: Surface plasmon resonance (SPR) was used to measure binding kinetics (i.e., ka, kd, KD, equilibrium) of the PR3 glycoengineered polypeptide analyte to a recombinant CLB12.8 ligand (anti-PR3 antibody) or a biotinylated recombinant human ASGPR1 ligand (Acro Biosystems). Data was collected with a Biocore 8K. Either recombinant CLB12.8 or ASGPR1 was immobilized to the surface of a sensor chip and sequential injections of increasing concentrations of the PR3 glycoengineered polypeptide were performed in a single cycle kinetics experiment. ASGPR1 assays included 2 mM CaCl2 in the running buffer. Data were fit with a 1:1 binding model for CLB12.8 and with a heterogenous binding model for ASGPR1 using the fitting software provided by Cytiva.

[2] = target: T1, recombinant anti-PR3 antibody CLB12.8; assay: SPR (Biacore 8K), single cycle kinetics, CLB12.8 immobilized, m1 as analyte, 1:1 binding model
Text: as §1

[3] = target: T1, recombinant anti-PR3 antibody CLB12.8; assay: SPR (Biacore 8K), single cycle kinetics, CLB12.8 immobilized, kinetic (pre-steady state) fit, 1:1 binding model
Text: as §1

[4] = target: T2, biotinylated recombinant human ASGPR1 (Acro Biosystems) (human, UniProt P07306 62-291, biotinylated); assay: SPR (Biacore 8K), single cycle kinetics, biotinylated ASGPR1 immobilized, 2 mM CaCl2, steady state fit; steady state KD (equilibrium fit)
T2 construct: Bought reagent
T2 sequence (looked up): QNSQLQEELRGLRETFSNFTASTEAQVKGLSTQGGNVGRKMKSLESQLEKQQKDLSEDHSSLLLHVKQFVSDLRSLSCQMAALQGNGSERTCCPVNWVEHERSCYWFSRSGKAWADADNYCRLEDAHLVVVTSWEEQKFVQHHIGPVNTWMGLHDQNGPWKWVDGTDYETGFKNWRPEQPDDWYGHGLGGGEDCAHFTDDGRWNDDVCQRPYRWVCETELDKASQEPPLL
Text: as §1

[5] = target: T2, biotinylated recombinant human ASGPR1 …; assay: SPR (Biacore 8K), single cycle kinetics, ASGPR1 immobilized, 2 mM CaCl2, heterogeneous binding model; column ka2 (second component)
Text: as §1

[6] = target: T2, biotinylated recombinant human ASGPR1 …; assay: SPR (Biacore 8K), single cycle kinetics, ASGPR1 immobilized, 2 mM CaCl2, heterogeneous binding model; column kd2 (second component)
Text: as §1

[7] = target: T2, biotinylated recombinant human ASGPR1 …; assay: SPR (Biacore 8K), single cycle kinetics, biotinylated ASGPR1 immobilized, 2 mM CaCl2, heterogenous binding model, KD1; pre-steady state KD1 (kinetic fit, first site)
Text: as §1

[8] = target: T2, biotinylated recombinant human ASGPR1 …; assay: SPR (Biacore 8K), single cycle kinetics, biotinylated ASGPR1 immobilized, 2 mM CaCl2, heterogenous binding model, KD2; pre-steady state KD2 (kinetic fit, second site)
Text: as §1

[9] = target: T2, biotinylated recombinant human ASGPR1 …; assay: SPR (Biacore 8K), single cycle kinetics, biotinylated ASGPR1 immobilized, m1 as analyte, 2 mM CaCl2, heterogenous binding model; ka1, first component of the heterogenous binding model
Text: as §1

[10] = target: T2, biotinylated recombinant human ASGPR1 …; assay: SPR (Biacore 8K), single cycle kinetics, biotinylated ASGPR1 immobilized, m1 as analyte, 2 mM CaCl2, heterogenous binding model; kd1, first component of the heterogenous binding model
Text: as §1

Kd [1]: 32.4 nM | koff [2]: 0.0754 s⁻¹ | kon [2]: 305000 M⁻¹ s⁻¹ | Kd [3]: 24.7 nM | Kd [4]: 364 nM | kon [5]: 873 M⁻¹ s⁻¹ | koff [6]: 6.16e-05 s⁻¹ | Kd [7]: 46.9 nM | Kd [8]: 70.6 nM | kon [9]: 1.61e+08 M⁻¹ s⁻¹ | koff [10]: 7.54 s⁻¹
B1: PR3 glycoengineered polypeptide (other)
chain: IVGGHEAQPHSRPYMASLQMRGNPGSHFCGGTLIHPSFVLTAAHCLRDIPQRLVNVVLGAHNVRTQEPTQQHFSVAQVFLNNYDAENKLNDVLLIQLSSPANLSASVATVQLPQQDQPVPHGTQCLAMGWGRVGAHDPPAQVLQELNVTVVTAACRPHNICTFVPRRKAGICFGDAGGPLICDGIIQGIDSFVIWGCATRAAPDFFTRVALYVDWIRSTLRRVEAKGRPGGGGANSTAPAPAPAHHHHHHHHHH
modifications: N-glycans (81.5% A2GalNAc2, biantennary GalNAc-terminated) at the native sites N129 and N174 (numbering of UniProt P24158) and at the Asn of the C-terminal glycotag; 80-90% of molecules fully …
notes: Secreted from glycoengineered Leishmania tarentolae (cell line stCGP05880) and purified by IMAC; also called exemplary PR3 glycoengineered polypeptide; glycoengineered polypeptide of PR3

— patent publication US20260055211A1 (GLYCOERA, published 2026)
